One may read the koff as the rate constant with which the complex falls apart. A high value points to a short-lived complex. In general, Kd refers to the free concentration of one partner at which half of the binding sites on the other are occupied at equilibrium, for simple one-to-one binding. Usually EC50 stands for the concentration that produces a half-maximal response.

The source of these data is patent US20080267971A1 (published 2008).

Assay [1] addresses T1, human Angiopoietin-2 (human, UniProt O15123 19-496).
T1 construct: Mostly bought recombinant protein (R&D Systems 623-AM/CF, 623-AN; biotinylated BT623) or supernatant of transfected 293F cells; also called Ang-2; rhAng-2
T1 sequence: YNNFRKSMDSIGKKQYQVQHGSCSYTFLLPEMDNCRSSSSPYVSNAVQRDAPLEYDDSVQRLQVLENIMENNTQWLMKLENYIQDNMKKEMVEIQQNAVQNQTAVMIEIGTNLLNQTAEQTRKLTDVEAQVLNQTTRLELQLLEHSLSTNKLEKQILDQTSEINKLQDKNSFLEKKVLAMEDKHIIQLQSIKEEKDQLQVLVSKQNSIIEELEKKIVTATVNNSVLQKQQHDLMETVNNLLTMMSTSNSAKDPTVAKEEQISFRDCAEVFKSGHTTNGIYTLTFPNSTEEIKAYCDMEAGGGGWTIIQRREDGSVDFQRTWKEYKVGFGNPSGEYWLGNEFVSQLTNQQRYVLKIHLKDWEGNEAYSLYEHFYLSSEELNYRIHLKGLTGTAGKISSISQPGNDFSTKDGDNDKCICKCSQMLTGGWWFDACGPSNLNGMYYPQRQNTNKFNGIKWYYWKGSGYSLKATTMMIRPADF
Put plainly: high resolution Biacore, 2nd experiment; kd held constant (*). The protocol:
The mAb was then immobilized on flow cells 1-3 (CM5 Biacore chip) using routine amine coupling, leaving flow cell 4 as the reference flow cell.
The antibody surfaces were regenerated with a 6-second pulse of 15 mM NaOH after each injection cycle.
The sample injections alternated with three blank injection cycles. Each surface was regenerated with a 6-second pulse of 15 mM NaOH after each long off-rate injection cycle.

The next assay deals with T2, mouse Angiopoietin-2 (mouse, UniProt O35608 19-496).
T2 construct: Used as conditioned medium of transfectants; also called mAng-2; mouse Ang-2
T2 sequence: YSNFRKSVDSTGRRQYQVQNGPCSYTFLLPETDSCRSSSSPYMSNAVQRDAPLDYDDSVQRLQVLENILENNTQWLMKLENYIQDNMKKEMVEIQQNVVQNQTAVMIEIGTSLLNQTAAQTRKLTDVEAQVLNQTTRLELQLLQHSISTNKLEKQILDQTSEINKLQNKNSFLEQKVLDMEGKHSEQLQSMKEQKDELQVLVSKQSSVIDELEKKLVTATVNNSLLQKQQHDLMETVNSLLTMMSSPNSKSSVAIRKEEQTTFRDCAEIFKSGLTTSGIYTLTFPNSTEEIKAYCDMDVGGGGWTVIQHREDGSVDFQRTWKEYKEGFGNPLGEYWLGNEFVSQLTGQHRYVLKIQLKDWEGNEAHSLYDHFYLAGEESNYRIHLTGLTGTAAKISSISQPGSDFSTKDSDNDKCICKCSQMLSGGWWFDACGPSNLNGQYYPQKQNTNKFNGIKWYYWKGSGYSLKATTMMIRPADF
Put plainly: competition ELISA: binding of mouse Ang-2 (culture supernatant) to coated human Tie2/Fc, mAb 3.19.3 titrated, bound Ang-2 detected with polyclonal anti-Ang-2. On the procedure:
(§1) For this purpose, an ELISA plate was coated with 4 μg/ml of hTie2/Fc (R&D Systems, Inc.) at 100 μl/well, and the wells were blocked as routine at 4° C. overnight.
(§2) Each concentration of the mAb was tested in triplicate. […] OD650 was determined 30 min after the HRP substrate was added.

The target in assay [2] is T1, human Angiopoietin-2. Put plainly: competition ELISA: binding of recombinant human Ang-2 to coated human Tie2/Fc, mAb 3.19.3 titrated, bound Ang-2 detected with polyclonal anti-Ang-2. The protocol:
as §1, §2

The target in assay [3] is T1, human Angiopoietin-2. Put plainly: KinExA, KD-controlled titration; KinExA, KD-controlled titration, 5 days at ~24 C. In general terms: A kinetic exclusion assay measures how much of one partner remains free in solution.
Method: For this purpose, a KinExA 3000 instrument was utilized. […] The beads were then centrifuged and washed once with blocking buffer (1×PBS, 10 mg/ml BSA), centrifuged again, and then incubated in blocking buffer for one hour at 24° C. After blocking, the beads were diluted in approximately 30 mL of HBS buffer (0.01 M Hepes, 0.15 M NaCl, pH 7.4) in a standard KinExA bead reservoir vial and placed on the instrument.
The KinExA instrument method used for the analysis of these solutions consisted of a bead packing step in which the PMMA beads were packed into a glass capillary, and the equilibrated solutions were flowed through the bead column at 0.25 mL/min for 6 min (1.5 mL) in duplicate. […] The fluorescence emission from the bead pack was measured at 670 nm with excitation at 620 nm. The resulting fluorescence measurements were converted into “% free nab binding site” versus total antigen concentration using the accompanying KinExA software package (version 1.0.3, Sapidyne, Inc.). The resulting KD-controlled titration curve was fit with the KinExA software to a 1:1 equilibrium isotherm with a drift correction factor included.
For assay [4], the target named is T1, human Angiopoietin-2. Put plainly: FACS: inhibition of Ang-2 binding to HEK293F/Tie2 cells. The protocol:
Cell suspension of 4 million cells/mL in FACS Buffer were prepared, and then aliquoted to a 96-well polypropylene plate with 50 ul per well. […] Cells were washed by centrifuging the plate at 1,200 rpm for 5 minutes, removing the supernatant by aspirating, and resuspending the cells with 200 ul per well of FACS Buffer. Washing procedures were repeated twice. The cells were then suspended with 100 ul of mouse Anti-6×-Histidine antibody diluted to 2 ug/ml in FACS Buffer, and incubated at room temperature for 30 minutes. After washing, the cells were suspended in 100 ul of PE-conjugated goat anti-mouse-IgG, which was diluted 1:100 in FACS Buffer, for incubation at room temperature for 30 minutes. The volume of the samples were brought to 300 ul with FACS Buffer, and measured with FACS Calibur.
Background: In flow cytometry, cells or beads pass a laser one at a time.

A further assay concerns the target T3, human Angiopoietin-1 (human, UniProt Q15389 20-498, limits assumed).
T3 construct: Bought recombinant protein (R&D Systems 293-AN-025/CF) or supernatant of transfected 293F cells; also called Ang-1; recombinant Ang-1
T3 sequence: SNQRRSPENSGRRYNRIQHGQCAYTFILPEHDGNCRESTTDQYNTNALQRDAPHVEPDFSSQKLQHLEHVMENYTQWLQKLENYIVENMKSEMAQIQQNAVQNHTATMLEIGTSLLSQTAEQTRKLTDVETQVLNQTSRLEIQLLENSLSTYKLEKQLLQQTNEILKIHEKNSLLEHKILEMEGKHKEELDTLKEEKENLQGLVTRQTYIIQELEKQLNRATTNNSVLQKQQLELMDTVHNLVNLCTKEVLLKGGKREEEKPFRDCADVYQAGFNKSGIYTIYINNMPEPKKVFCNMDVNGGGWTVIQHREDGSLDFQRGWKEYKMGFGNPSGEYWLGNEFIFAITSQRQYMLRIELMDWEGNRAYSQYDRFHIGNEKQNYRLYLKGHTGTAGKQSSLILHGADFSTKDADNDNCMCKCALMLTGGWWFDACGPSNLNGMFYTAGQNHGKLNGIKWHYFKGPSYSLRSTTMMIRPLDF
The assay is described as follows: Biacore, mAb captured.

Assay [5] deals with T1, human Angiopoietin-2. The assay is described as follows: Biacore; kd held constant (*); kd held constant in the fit, not measured. On the procedure: The label-free surface plasmon resonance (SPR), or Biacore, was utilized to measure the antibody affinity to the antigen. For this purpose, a high-density goat anti-human antibody surface over a CM5 Biacore chip was prepared using routine amine coupling. All the purified mAbs were diluted to approximately 8 μg/ml in HBS-P running buffer containing 100 μg/ml BSA and 10 mg/mL carboxymethyldextran. Each mAb was captured on a separate surface using a 42-second contact time, and a 5-minute wash for stabilization of the mAb baseline.
Data were fit globally to a 1:1 interaction model to determine the binding kinetics.
For orientation: SPR reads the build-up and loss of mass on a sensor chip optically.

B1: mAb 3.19.3 (antibody, V domains shown)
VH: QVQLVESGGGVVQPGRSLRLSCAASGFTFTNYGMHWGRQAPGKGLEWVAVISHDGNNKYYVDSVKGRFTISRDNSKNTLYLQMNSLRAEDTAVYYCAREGIDFWSGLNWFDPWGQGTLVTVSS
VL: EIVLTQSPGTLSLSPGERATLSCRASQSITGSYLAWYQQKPGQAPRLLICGASSWATGIPDRFSGSGSGTDFTLTISRLEPEDFAVYYCQQYSSSPITFGQGTRLEIKR
notes: Human hybridoma IgG (XenoMouse); also called x3.19
B1: in the assay with human Angiopoietin-2 [1], the koff was roughly 1e-06 s⁻¹. Besides, the “IC50 (read off the curve)” value was roughly 2 µg/mL in the assay with mouse Angiopoietin-2 and roughly 0.8 µg/mL in the assay with human Angiopoietin-2 [2]. The molecule further yielded a Kd in the assay with human Angiopoietin-2 [3] of 0.0864 nM. In the assay with human Angiopoietin-2 [4], this molecule gave an EC50 of 0.731 nM.

B2: mAb 3.3.2 (antibody, V domains shown)
VH: EVQLVESGGGLVQPGGSLRLSCAVSGFTFSSYWMSWVRQAPGKGLEWVANIKQDGSEKYYVDSVKGRFTISRDNAKNSLYLQMNSLRAEDTAVYYCARDQGIAVAGPFDYWGQGTLVTVSS
VL: EIVMTQSPATLSVSPGERATLSCRASQTVSSDLAWYQQKPGQAPRLLIYGASIRATGIPARFSGSGSGTEFTLTISSLQSEDFAVYSCQQYYNWWTFGQGTKVEIKR
notes: Human hybridoma IgG (XenoMouse); also called 3.3.1; x3.3
B2: the binding result with human Angiopoietin-1 is recorded as “no binding (tested: 87.4 nM Ang-1)”.

B3: mAb 5.52.1 (antibody, V domains shown)
VH: QVQLVESGGGVVQPGRSLRLSCAASGFTFSSYGMHWVRQAPGKGLEWVAVRWYDESNKYYADSVKGRFTISRDNSKNTLYLQMNSLRAEDTAVYYCARDPFETGTTFDYWGQGTLVTVSS
VL: DIQMTQSPSSVSASVGDRVTITCRASQGISSWLAWYQQKPGKAPKLLIYAVSSLESGVPSRFSGSGSGTDFTLTISSLQPEDFATYYCQQALTFGGGTKVEIKR
notes: Human hybridoma IgG (XenoMouse); the line 5.52 has entries of its own (347, 349; light chain L2) that differ from the clone 5.52.1 (L5); also called x5.52
As to B3, in the assay with human Angiopoietin-2 [5], the koff is no more than 1e-05 s⁻¹.
